From patent US20190175744A1 (Merck Sharp & Dohme, published 2019)
Starred links: 1 amine or outer side, 2 acyl side, 3 side chain; linkers in the order of their positions; H or OH if unused. Non-standard residues stand in square brackets, D forms with d. Groups on a side chain read outwards from the residue. No end group written: not given here. *: point of attachment. C16N3 = 16-azido-hexadecanoic acid, [N-]=[N+]=NCCCCCCCCCCCCCCCC(=O)*; C5N3 = 5-azido pentinoic acid, [N-]=[N+]=NCCCCC(=O)*; C18 diacid = O=C(O)CCCCCCCCCCCCCCCCC(=O)*; Lys(N3) = [N-]=[N+]=NCCCC[C@H](N)C(=O)O; γGlu = O=C(O)[C@H](CCC(=O)[*:2])N[*:1]; Met(O2) = CS(=O)(=O)CC[C@H](N)C(=O)O; Palmitoyl = CCCCCCCCCCCCCCCC(=O)*; AEEA = NCCOCCOCC(=O)O; Aib = CC(C)(N)C(=O)O

B1: PEP6 (peptide)
peptide: H[Aib]QGTFTSDK([γGlu-γGlu-Palmitoyl])SKYLD[Aib]RRAQDFVQWLLDT[Lys(N3)][γGlu]-NH2
modifications: N-terminus assumed
SMILES: CCCCCCCCCCCCCCCC(=O)N[C@@H](CCC(=O)N[C@@H](CCC(=O)NCCCC[C@H](NC(=O)[C@H](CC(=O)O)NC(=O)[C@H](CO)NC(=O)[C@@H](NC(=O)[C@H](Cc1ccccc1)NC(=O)[C@@H](NC(=O)CNC(=O)[C@H](CCC(N)=O)NC(=O)C(C)(C)NC(=O)[C@@H](N)Cc1c[nH]cn1)[C@@H](C)O)[C@@H](C)O)C(=O)N[C@@H](CO)C(=O)N[C@@H](CCCCN)C(=O)N[C@@H](Cc1ccc(O)cc1)C(=O)N[C@@H](CC(C)C)C(=O)N[C@@H](CC(=O)O)C(=O)NC(C)(C)C(=O)N[C@@H](CCCNC(=N)N)C(=O)N[C@@H](CCCNC(=N)N)C(=O)N[C@@H](C)C(=O)N[C@@H](CCC(N)=O)C(=O)N[C@@H](CC(=O)O)C(=O)N[C@@H](Cc1ccccc1)C(=O)N[C@H](C(=O)N[C@@H](CCC(N)=O)C(=O)N[C@@H](Cc1c[nH]c2ccccc12)C(=O)N[C@@H](CC(C)C)C(=O)N[C@@H](CC(C)C)C(=O)N[C@@H](CC(=O)O)C(=O)N[C@H](C(=O)N[C@@H](CCCCN=[N+]=[N-])C(=O)N[C@@H](CCC(N)=O)C(=O)O)[C@@H](C)O)C(C)C)C(=O)O)C(=O)O
B2: PEP13 (peptide)
peptide: H[dS]QGTFTSDK([γGlu-γGlu-Palmitoyl])SKYLDSRRAHDFV[Lys(N3)]WLLNT-NH2
modifications: N-terminus assumed
SMILES: CCCCCCCCCCCCCCCC(=O)N[C@@H](CCC(=O)N[C@@H](CCC(=O)NCCCC[C@H](NC(=O)[C@H](CC(=O)O)NC(=O)[C@H](CO)NC(=O)[C@@H](NC(=O)[C@H](Cc1ccccc1)NC(=O)[C@@H](NC(=O)CNC(=O)[C@H](CCC(N)=O)NC(=O)[C@@H](CO)NC(=O)[C@@H](N)Cc1c[nH]cn1)[C@@H](C)O)[C@@H](C)O)C(=O)N[C@@H](CO)C(=O)N[C@@H](CCCCN)C(=O)N[C@@H](Cc1ccc(O)cc1)C(=O)N[C@@H](CC(C)C)C(=O)N[C@@H](CC(=O)O)C(=O)N[C@@H](CO)C(=O)N[C@@H](CCCNC(=N)N)C(=O)N[C@@H](CCCNC(=N)N)C(=O)N[C@@H](C)C(=O)N[C@@H](Cc1c[nH]cn1)C(=O)N[C@@H](CC(=O)O)C(=O)N[C@@H](Cc1ccccc1)C(=O)N[C@H](C(=O)N[C@@H](CCCCN=[N+]=[N-])C(=O)N[C@@H](Cc1c[nH]c2ccccc12)C(=O)N[C@@H](CC(C)C)C(=O)N[C@@H](CC(C)C)C(=O)N[C@@H](CC(N)=O)C(=O)N[C@H](C(N)=O)[C@@H](C)O)C(C)C)C(=O)O)C(=O)O
B3: PEP21 (peptide)
peptide: HXQGTFTSDKSKYLDXRAAQDFVQWLLDTKK
modifications: Aib (U) at 2 and 16; Lys 10 K(γEγEC16); Lys 31 K(PEG2PEG2-C5N3); C-terminal amide
B4: PEP22 (peptide)
peptide: H[Aib]QGTFTSDK([γGlu-γGlu-Palmitoyl])SKYLD[Aib]RAAQDFV[Lys(N3)]WLLDTK[γGlu]-NH2
modifications: N-terminus assumed
SMILES: CCCCCCCCCCCCCCCC(=O)N[C@@H](CCC(=O)N[C@@H](CCC(=O)NCCCC[C@H](NC(=O)[C@H](CC(=O)O)NC(=O)[C@H](CO)NC(=O)[C@@H](NC(=O)[C@H](Cc1ccccc1)NC(=O)[C@@H](NC(=O)CNC(=O)[C@H](CCC(N)=O)NC(=O)C(C)(C)NC(=O)[C@@H](N)Cc1c[nH]cn1)[C@@H](C)O)[C@@H](C)O)C(=O)N[C@@H](CO)C(=O)N[C@@H](CCCCN)C(=O)N[C@@H](Cc1ccc(O)cc1)C(=O)N[C@@H](CC(C)C)C(=O)N[C@@H](CC(=O)O)C(=O)NC(C)(C)C(=O)N[C@@H](CCCNC(=N)N)C(=O)N[C@@H](C)C(=O)N[C@@H](C)C(=O)N[C@@H](CCC(N)=O)C(=O)N[C@@H](CC(=O)O)C(=O)N[C@@H](Cc1ccccc1)C(=O)N[C@H](C(=O)N[C@@H](CCCCN=[N+]=[N-])C(=O)N[C@@H](Cc1c[nH]c2ccccc12)C(=O)N[C@@H](CC(C)C)C(=O)N[C@@H](CC(C)C)C(=O)N[C@@H](CC(=O)O)C(=O)N[C@H](C(=O)N[C@@H](CCCCN)C(=O)N[C@@H](CCC(N)=O)C(=O)O)[C@@H](C)O)C(C)C)C(=O)O)C(=O)O
B5: PEP27 (peptide)
peptide: H[dS]QGTFTSDYSKYLDERAAQK([AEEA-AEEA-γGlu-C16N3])FVQWLLDT-NH2
modifications: N-terminus assumed
SMILES: CC(C)C[C@H](NC(=O)[C@H](Cc1ccc(O)cc1)NC(=O)[C@H](CCCCN)NC(=O)[C@H](CO)NC(=O)[C@H](Cc1ccc(O)cc1)NC(=O)[C@H](CC(=O)O)NC(=O)[C@H](CO)NC(=O)[C@@H](NC(=O)[C@H](Cc1ccccc1)NC(=O)[C@@H](NC(=O)CNC(=O)[C@H](CCC(N)=O)NC(=O)[C@@H](CO)NC(=O)[C@@H](N)Cc1c[nH]cn1)[C@@H](C)O)[C@@H](C)O)C(=O)N[C@@H](CC(=O)O)C(=O)N[C@@H](CCC(=O)O)C(=O)N[C@@H](CCCNC(=N)N)C(=O)N[C@@H](C)C(=O)N[C@@H](C)C(=O)N[C@@H](CCC(N)=O)C(=O)N[C@@H](CCCCNC(=O)COCCOCCNC(=O)COCCOCCNC(=O)CC[C@H](NC(=O)CCCCCCCCCCCCCCCN=[N+]=[N-])C(=O)O)C(=O)N[C@@H](Cc1ccccc1)C(=O)N[C@H](C(=O)N[C@@H](CCC(N)=O)C(=O)N[C@@H](Cc1c[nH]c2ccccc12)C(=O)N[C@@H](CC(C)C)C(=O)N[C@@H](CC(C)C)C(=O)N[C@@H](CC(=O)O)C(=O)N[C@H](C(N)=O)[C@@H](C)O)C(C)C
B6: PEP28 (peptide)
peptide: H[Aib]QGTFTSDYSKYLD[Aib]RAAQDFVQWLLDTKK([AEEA-AEEA-γGlu-C16N3])-NH2
modifications: N-terminus assumed
SMILES: CC(C)C[C@H](NC(=O)[C@H](Cc1c[nH]c2ccccc12)NC(=O)[C@H](CCC(N)=O)NC(=O)[C@@H](NC(=O)[C@H](Cc1ccccc1)NC(=O)[C@H](CC(=O)O)NC(=O)[C@H](CCC(N)=O)NC(=O)[C@H](C)NC(=O)[C@H](C)NC(=O)[C@H](CCCNC(=N)N)NC(=O)C(C)(C)NC(=O)[C@H](CC(=O)O)NC(=O)[C@H](CC(C)C)NC(=O)[C@H](Cc1ccc(O)cc1)NC(=O)[C@H](CCCCN)NC(=O)[C@H](CO)NC(=O)[C@H](Cc1ccc(O)cc1)NC(=O)[C@H](CC(=O)O)NC(=O)[C@H](CO)NC(=O)[C@@H](NC(=O)[C@H](Cc1ccccc1)NC(=O)[C@@H](NC(=O)CNC(=O)[C@H](CCC(N)=O)NC(=O)C(C)(C)NC(=O)[C@@H](N)Cc1c[nH]cn1)[C@@H](C)O)[C@@H](C)O)C(C)C)C(=O)N[C@@H](CC(C)C)C(=O)N[C@@H](CC(=O)O)C(=O)N[C@H](C(=O)N[C@@H](CCCCN)C(=O)N[C@@H](CCCCNC(=O)COCCOCCNC(=O)COCCOCCNC(=O)CC[C@H](NC(=O)CCCCCCCCCCCCCCCN=[N+]=[N-])C(=O)O)C(N)=O)[C@@H](C)O

Columns and labels:
[1] = target: human glucagon receptor (human, UniProt P47871 26-477); assay: cell-based or functional assay
[2] = target: human GLP-1 receptor (human, UniProt P43220 24-463); assay: cell-based or functional assay

Row | Binder | hGCGR_EC50 (cAMP activity assay) [1] [nM] | hGLP1R EC50 (cAMP activity assay) [2] [nM]
1 | H[dS]QGTFTSDK([γGlu-γGlu-Palmitoyl])SKYLDERAAQ[Lys(N3)]FVQWLLDT-NH2 [PEP1] | 0.01 | –
2 | B1 | 0.07 | 0.17
3 | HXQGTFTSDKSKYLDERAAQDFVXWLLXT (D-Ser (s) at 2; Lys 10 K(γEγEC16); Nle(εN3) at 24; γE at 28; C-terminal amide) [PEP11] | – | 0.06
4 | B2 | 0.04 | 0.1
5 | HXQGTFTSDKSKYLDERAAQDFVKWLLDT (D-Ser (s) at 2; Lys 10 K(γEγEC16); Lys 24 K(PEG2-C5N3); C-terminal amide) [PEP14] | 0.05 | 0.07
6 | H[Aib]QGTFTSDK([γGlu-γGlu-Palmitoyl])SKYLDERAAQDFV[Lys(N3)]WLLDGRG-NH2 [PEP2] | 0.11 | –
7 | H[dS]QGTFTSDK([γGlu-γGlu-Palmitoyl])SKYLDERAAK([AEEA-C5N3])DFVQWLLDT-NH2 [PEP16] | 0.05 | 0.06
8 | H[dS]QGTFTSDK([γGlu-γGlu-Palmitoyl])SKYLDERAAK([AEEA-AEEA-C5N3])DFVQWLLDT-NH2 [PEP17] | 0.06 | 0.05
9 | H[Aib]QGTFTSDK([γGlu-γGlu-Palmitoyl])SKYLD[Aib]RAAQDFVQWLLDTKK([AEEA-C5N3])-NH2 [PEP20] | 0.1 | 0.05
10 | B3 | 0.08 | 0.07
11 | B4 | – | 0.07
12 | HXQGTFTSDYSKYLDERAAQDFVKWLLDT (D-Ser (s) at 2; Lys 24 K(PEG2PEG2γE-C16N3); C-terminal amide) [PEP25] | 0.04 | 0.05
13 | H[dS]QGTFTSDYSKYLDERAAK([AEEA-AEEA-γGlu-C16N3])DFVQWLLDT-NH2 [PEP26] | 0.12 | 0.12
14 | B5 | 0.39 | 0.06
15 | H[Aib]QGTFTSDK([γGlu-γGlu-Palmitoyl])SKYLD[Aib]RAAQDFV[Lys(N3)]WL[Met(O2)]KGRG-NH2 [PEP3] | 0.07 | –
16 | B6 | 0.17 | 0.16
17 | HXQGTFTSDKSKYLDERAAQDFVXWLLDT (D-Ser (s) at 2; Lys 10 K(PEG2PEG2γEC18-OH); Nle(εN3) at 24; C-terminal amide) [PEP29] | 3.26 | 3.28
18 | H[Aib]QGTFTSDYSKYLDARAAK([AEEA-AEEA-γGlu-C18 diacid])DFV[Lys(N3)]WL[Met(O2)]DT-NH2 [PEP30] | 2.27 | 0.5
19 | HXQGTFTSDKSKYLDERAAQDFVXWLLDT (D-Ser (s) at 2; Lys 10 K(γEγEC16); Nle(εN3) at 24; C-terminal amide) [PEP74] | – | 0.05
